# Test results from article doi:10.1101/2025.04.28.650843.
# Where “and” joins values, the source holds several entries; their conditions need not be identical. Equal values may be shown once.
# Molecular target: allophycocyanin (AP) (Synechococcus elongatus PCC 7942)
# Assay: cryo-EM structure
substance,measurement,value
allophycocyanin (AP) (complex),stoichiometry N,3 and 6
